The values below are quoted from earlier work in publication PMC3416746.

The target of data set [1] is mDia1 N-terminus (Mus musculus) (UniProt O08808).
Data set [2] has as its target mDia1 DID DID (Mus musculus) (UniProt O08808).

RhoA (from UniProt P61586): the Kd in data set [1] is 6 nM. In the case of mDia1 DAD DAD (from UniProt O08808), in data set [2], the Kd was 150 nM.
